Measured values as given in patent US20140302043A1.

Target: hemagglutinin (HA) of H1N1 virus strain A/Brazil/1403/2003 (influenza A virus H1N1, A/Brazil/1403/2003)
Experiment: cell-based or functional assay

Question: With mAb CH67 (antibody) as the substance, how does the mAb minimum effective concentration (EC99, microneutralization on MDCK cells) read?
Answer: Its mAb minimum effective concentration (EC99, microneutralization on MDCK cells) is 0.195 µg/mL.

Question: For “mAb CH65, recombinant intact IgG1 (antibody)”, which mAb minimum effective concentration (EC99, microneutralization on MDCK cells) is on record?
Answer: Its mAb minimum effective concentration (EC99, microneutralization on MDCK cells) is 3.12 µg/mL.
